Molecular target: RAD51 (UniProt Q06609)
Assay: co-immunoprecipitation, Western blot
Conditions: reference: wild-type NPM1, cisplatin; sites S260

binding against the reference: stronger
Substance: nucleophosmin 1 (NPM1) (from UniProt P06748) NPM1 S260A, cisplatin

From paper PMC12092789
